{"source": "patent US20220267435A1", "target": "CD19 (UniProt P15391)", "sequence (P15391 20-556 limits assumed)": "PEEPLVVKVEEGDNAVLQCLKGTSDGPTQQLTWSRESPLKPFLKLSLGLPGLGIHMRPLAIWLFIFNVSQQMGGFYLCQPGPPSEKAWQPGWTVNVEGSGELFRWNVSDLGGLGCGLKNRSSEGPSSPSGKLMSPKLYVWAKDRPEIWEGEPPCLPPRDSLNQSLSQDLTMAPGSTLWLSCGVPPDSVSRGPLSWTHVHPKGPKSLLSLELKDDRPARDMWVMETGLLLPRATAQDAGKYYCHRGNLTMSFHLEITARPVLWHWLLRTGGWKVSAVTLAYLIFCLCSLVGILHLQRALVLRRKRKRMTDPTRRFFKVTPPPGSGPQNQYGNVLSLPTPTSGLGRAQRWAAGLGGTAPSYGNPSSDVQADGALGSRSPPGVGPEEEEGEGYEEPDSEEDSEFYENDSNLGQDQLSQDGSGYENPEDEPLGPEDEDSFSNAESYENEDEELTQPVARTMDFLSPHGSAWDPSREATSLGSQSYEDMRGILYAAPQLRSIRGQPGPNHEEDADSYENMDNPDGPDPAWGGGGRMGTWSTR", "test": "cell-based or functional assay"}
{"substance": "BG-conjugated FMC63 antibody", "values": [{"measurement": "FMC63-BG concentration at the peak of SNAP-synNotch activation (TagBFP)", "value": 0.25, "unit": "µg/mL"}, {"measurement": "FMC63-BG concentration at which SNAP-synNotch activation is completely inhibited (hook effect)", "value": 10, "unit": "µg/mL"}, {"measurement": "TagBFP MFI; 0.01 million SNAP-synNotch cells, 0.01 million Raji cells, 0.1 µg/mL FMC63-BG, 48 h", "value": 1820, "unit": "MFI"}, {"measurement": "TagBFP MFI; 0.01 million SNAP-synNotch cells, 0.01 million Raji cells, 1.0 µg/mL FMC63-BG, 48 h", "value": 806, "unit": "MFI"}, {"measurement": "TagBFP MFI; 0.01 million SNAP-synNotch cells, 0.1 million Raji cells, 0.1 µg/mL FMC63-BG, 48 h", "value": 3400, "unit": "MFI"}, {"measurement": "TagBFP MFI; 0.01 million SNAP-synNotch cells, 0.1 million Raji cells, 1.0 µg/mL FMC63-BG, 48 h", "value": 2470, "unit": "MFI"}, {"measurement": "TagBFP MFI; 0.01 million SNAP-synNotch cells, 0.5 million Raji cells, 0.1 µg/mL FMC63-BG, 48 h", "value": 1810, "unit": "MFI"}, {"measurement": "TagBFP MFI; 0.01 million SNAP-synNotch cells, 0.5 million Raji cells, 1.0 µg/mL FMC63-BG, 48 h", "value": 5350, "unit": "MFI"}, {"measurement": "TagBFP MFI; 0.01 million SNAP-synNotch cells, 1 million Raji cells, 0.1 µg/mL FMC63-BG, 48 h", "value": 1520, "unit": "MFI"}, {"measurement": "TagBFP MFI; 0.01 million SNAP-synNotch cells, 1 million Raji cells, 1.0 µg/mL FMC63-BG, 48 h", "value": 4430, "unit": "MFI"}, {"measurement": "TagBFP MFI; 0.1 million SNAP-synNotch cells, 0.01 million Raji cells, 0.1 µg/mL FMC63-BG, 48 h", "value": 1020, "unit": "MFI"}, {"measurement": "TagBFP MFI; 0.1 million SNAP-synNotch cells, 0.01 million Raji cells, 1.0 µg/mL FMC63-BG, 48 h", "value": 984, "unit": "MFI"}, {"measurement": "TagBFP MFI; 0.1 million SNAP-synNotch cells, 0.1 million Raji cells, 0.1 µg/mL FMC63-BG, 48 h", "value": 2540, "unit": "MFI"}, {"measurement": "TagBFP MFI; 0.1 million SNAP-synNotch cells, 0.1 million Raji cells, 1.0 µg/mL FMC63-BG, 48 h", "value": 2260, "unit": "MFI"}, {"measurement": "TagBFP MFI; 0.1 million SNAP-synNotch cells, 0.5 million Raji cells, 0.1 µg/mL FMC63-BG, 48 h", "value": 1940, "unit": "MFI"}, {"measurement": "TagBFP MFI; 0.1 million SNAP-synNotch cells, 0.5 million Raji cells, 1.0 µg/mL FMC63-BG, 48 h", "value": 4570, "unit": "MFI"}, {"measurement": "TagBFP MFI; 0.1 million SNAP-synNotch cells, 1 million Raji cells, 0.1 µg/mL FMC63-BG, 48 h", "value": 1180, "unit": "MFI"}, {"measurement": "TagBFP MFI; 0.1 million SNAP-synNotch cells, 1 million Raji cells, 1.0 µg/mL FMC63-BG, 48 h", "value": 4220, "unit": "MFI"}, {"measurement": "TagBFP MFI; 0.5 million SNAP-synNotch cells, 0.01 million Raji cells, 0.1 µg/mL FMC63-BG, 48 h", "value": 732, "unit": "MFI"}, {"measurement": "TagBFP MFI; 0.5 million SNAP-synNotch cells, 0.01 million Raji cells, 1.0 µg/mL FMC63-BG, 48 h", "value": 667, "unit": "MFI"}, {"measurement": "TagBFP MFI; 0.5 million SNAP-synNotch cells, 0.1 million Raji cells, 0.1 µg/mL FMC63-BG, 48 h", "value": 1570, "unit": "MFI"}, {"measurement": "TagBFP MFI; 0.5 million SNAP-synNotch cells, 0.1 million Raji cells, 1.0 µg/mL FMC63-BG, 48 h", "value": 1490, "unit": "MFI"}, {"measurement": "TagBFP MFI; 0.5 million SNAP-synNotch cells, 0.5 million Raji cells, 0.1 µg/mL FMC63-BG, 48 h", "value": 1120, "unit": "MFI"}, {"measurement": "TagBFP MFI; 0.5 million SNAP-synNotch cells, 0.5 million Raji cells, 1.0 µg/mL FMC63-BG, 48 h", "value": 2680, "unit": "MFI"}, {"measurement": "TagBFP MFI; 0.5 million SNAP-synNotch cells, 1 million Raji cells, 0.1 µg/mL FMC63-BG, 48 h", "value": 955, "unit": "MFI"}, {"measurement": "TagBFP MFI; 0.5 million SNAP-synNotch cells, 1 million Raji cells, 1.0 µg/mL FMC63-BG, 48 h", "value": 2880, "unit": "MFI"}, {"measurement": "TagBFP MFI; 1 million SNAP-synNotch cells, 0.01 million Raji cells, 0.1 µg/mL FMC63-BG, 48 h", "value": 550, "unit": "MFI"}, {"measurement": "TagBFP MFI; 1 million SNAP-synNotch cells, 0.01 million Raji cells, 1.0 µg/mL FMC63-BG, 48 h", "value": 519, "unit": "MFI"}, {"measurement": "TagBFP MFI; 1 million SNAP-synNotch cells, 0.1 million Raji cells, 0.1 µg/mL FMC63-BG, 48 h", "value": 1160, "unit": "MFI"}, {"measurement": "TagBFP MFI; 1 million SNAP-synNotch cells, 0.1 million Raji cells, 1.0 µg/mL FMC63-BG, 48 h", "value": 1220, "unit": "MFI"}, {"measurement": "TagBFP MFI; 1 million SNAP-synNotch cells, 0.5 million Raji cells, 0.1 µg/mL FMC63-BG, 48 h", "value": 979, "unit": "MFI"}, {"measurement": "TagBFP MFI; 1 million SNAP-synNotch cells, 0.5 million Raji cells, 1.0 µg/mL FMC63-BG, 48 h", "value": 1810, "unit": "MFI"}, {"measurement": "TagBFP MFI; 1 million SNAP-synNotch cells, 1 million Raji cells, 0.1 µg/mL FMC63-BG, 48 h", "value": 748, "unit": "MFI"}, {"measurement": "TagBFP MFI; 1 million SNAP-synNotch cells, 1 million Raji cells, 1.0 µg/mL FMC63-BG, 48 h", "value": 1970, "unit": "MFI"}, {"measurement": "lowest FMC63-BG concentration with significant SNAP-synNotch activation (TagBFP)", "value": 0.04, "unit": "µg/mL"}]}
